# Residue numbers refer to the chain shown, from its start. Numbers in names are those of the source.
# B1: DBAT (recombinant DBAT of T. cuspidata) (Taxus cuspidata) (protein)
# chain: MAGSTEFVVRSLERVMVAPSQPSPKAFLQLSTLDNLPGVRENIFNTLLVYNASDRVSVDPAKVIRQALSKVLVYYSPFAGRLRKKENGDLEVECTGEGALFVEAMADTDLSVLGDLDDYSPSLEQLLFCLPPDTDIEDIHPLVVQVTRFTCGGFVVGVSFCHGICDGLGAGQFLIAMGEMARGEIKPSSEPIWKRELLKPEDPLYRFQYYHFQLICPPSTFGKIVQGSLVITSETINCIKQCLREESKEFCSAFEVVSALAWIARTRALQIPHSENVKLIFAMDMRKLFNPPLSKGYYGNFVGTVCAMDNVKDLLSGSLLRVVRIIKKAKVSLNEHFTSTIVTPRSGSDESINYENIVGFGDRRRLGFDEVDFGWGHADNVSLVQHGLKDVSVVQSYFLFIRPPKNNPDGIKILSFMPPSIVKSFKFEMETMTNKYVTKP
# B2: DBAT (recombinant DBAT of T. cuspidata) (Taxus cuspidata; G38R) (protein)
# chain: B1 chain with G38R
# B3: DBAT (recombinant DBAT of T. cuspidata) (Taxus cuspidata; F301V) (protein)
# chain: B1 chain with F301V
# B4: DBAT (recombinant DBAT of T. cuspidata) (Taxus cuspidata; F301V/G38R) (protein)
# chain: B1 chain with G38R, F301V
# Substrate: [H][C@]12[C@H](OC(=O)c3ccccc3)[C@]3(O)C[C@H](OC(=O)[C@H](O)[C@@H](NC(=O)c4ccccc4)c4ccccc4)C(C)=C([C@@H](O)C(=O)[C@]1(C)[C@@H](O)C[C@@]1([H])OC[C@@]21OC(C)=O)C3(C)C
# Test: purified protein
# Conditions: acetyl-CoA 2,000 μM (saturating), 50 mM sodium acetate pH 5.5, 37.5 °C, 180 min
Protein,Km,Vmax [µM/min],kcat [s⁻¹],kcat/Km [M⁻¹ s⁻¹]
B1,0.546 (±0.029) mM,0.204,0.000334,0.611
B2,0.368 (±0.061) mM,0.499,0.000815,2.22
B3,0.178 (±0.017) mM,0.242,0.000396,2.22
B4,0.424 (±0.133) mM,0.918,0.0015,3.54

# Source: paper PMC5454391, “Improving 10-deacetylbaccatin III-10-β-O-acetyltransferase catalytic fitness for Taxol production” (Nature Communications, 2017)
